Target: adzuki bean (Vigna angularis) β-vignin protein (Vigna angularis (adzuki bean))
Experiment: SEC; gel molecular sieving on a Sephadex G-200 column (50 cm x 2.5 cm) under native condition, 0.58 mL/min, room temperature; calibrated with standard proteins; apparent molecular size compared with the subunits' Mr from SDS-PAGE

- stoichiometry N: 3
Substance: adzuki bean (Vigna angularis) β-vignin protein (natural protein)

— article PMC8000399
